{
  "source": "the nanobody polyreactivity screen of Harvey et al. (2022)",
  "data": [
    {"assay": "yeast display, Sf9 membrane polyspecificity reagent, FACS + sequencing; frameworks hold sequencing errors", "procedure,_shortened": "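Nanobodies from a synthetic yeast display library (Saccharomyces cerevisiae BJ5465), induced 36–48 hours with galactose, were stained 1 hour at 4 °C with 10% biotinylated, detergent-solubilized Sf9 membrane reagent, enriched on streptavidin microbeads, then FACS-sorted. Anti-HA (expression) and streptavidin (reagent binding) fluorescence set low and high (top ~1%) gates. Polyreactivity labels come from the gate of origin. Genes were colony-PCR amplified, MiSeq 2 × 250 sequenced and filtered by CDR length.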", "values": [
      {"sequence": "QVQLVESGGGLVQAGGSLRLSCAASGFIFRKYAMGWFRQAPGKERELVAAISRGGGSTYYADSVKGRFTISRDNAKNTVYLQMNSLKPEDTAVYYCAVGIVQRDSRYYYWGQGTQVTVSS", "polyreactivity (PSR sort gate)": "high polyreactivity"},
      {"sequence": "QVQLVESGGGLVHAGGSLRLSCAASGSIFFQYGMGWYRHAPGKEREYVAAISVSGGSTYYADSVKGRFTISRDNAKNSVYLQMNSLKPEDTAVYYCAADGSTDYVYSPPIDEYDFWGQGTQVTVSS", "polyreactivity (PSR sort gate)": "low polyreactivity"},
      {"sequence": "QVQLVESGGGLVQAGGSLRLSCAASGSTFYGNDMGWYRQAPGKERELVAAISSGGSTNYADSVKGRFTISRDNAKNTVYLQMNSLKPEDTAVYYCAADDTPDTISGSDYWGQGTQVTVSS", "polyreactivity (PSR sort gate)": "low polyreactivity"},
      {"sequence": "QVQLVESGGVLVQAGGSLRLSCAASGRTFLNYTMGWYRQAPRKDIELVAAISTSGGSTNYADSVKGRFTISRDNAKNTVYLQMTSLKPEDTAVYYCAAETSTKPEAYEYWGQGTQVTVSS", "polyreactivity (PSR sort gate)": "low polyreactivity"},
      {"sequence": "QVQHVESGGGLVQAGGSLRLSCAASGIIIKFYAMGWYRKAPVKERELVATITFSSGTTYYADSVKGRFTMSRDNAKTTVYFQMNSLKPEDTAVYYCAASTLPAWPYDGPAGPRYDYWGQGTQVTVSS", "polyreactivity (PSR sort gate)": "low polyreactivity"},
      {"sequence": "QVQLVESGGGLVQAGGSLRLSCAASGSIFGRNTMGWYRQAPGKERELVAAISRSGGSTYYADSVKGRFTISRDNAKNTVYLQMNSLKPEDSAVYYCAARGKYDYSGVSFNYWGQGTQVTVSS", "polyreactivity (PSR sort gate)": "high polyreactivity"},
      {"sequence": "QVQLVESGGGLVQAGGSLRLSCAASGIIFRAYAMGWYRQAPGKERELVAAITSRGGSTYYADSVKGRFTISRDNAKNTVYLQMNSLKPEDTAVYYCAADFTIPYWDAKFDYWGQGTQVTVSS", "polyreactivity (PSR sort gate)": "low polyreactivity"},
      {"sequence": "QVQLVESGGGLVQAGGSLRLSCAASGRTFAFYAMGWYRQAPGKERELVASISSSGDRTYYADSVKGRFTISRDNAKNTVYLQMNSLKPEDTAVYYCAARWSYTYYYWGQGTQVTVSS", "polyreactivity (PSR sort gate)": "high polyreactivity"},
      {"sequence": "QVQLVESGGGLVQAGGSLRLSCAASGRTFRENAMGWYRPAPGKERELVAAISWRAGSTYYADSVKGRFTISRDNAKNTVYLQMNSLKPEDTAVYYCAAKYTVSFYLWGTFNYWGQGTQVTVSS", "polyreactivity (PSR sort gate)": "high polyreactivity"},
      {"sequence": "QVQLVESGGGLVQAGGSLRLSCAASGFTFYSYVMGWYRQAPGKERELVAAISWSGGSTYYADSVKGRFTISRDNAKNTVYLQMNSLKPEDTAVYYCAARRYASRTGYLYDYWGQGTQVTVSS", "polyreactivity (PSR sort gate)": "high polyreactivity"},
      {"sequence": "QVQLVESGGGLVQAGGSRRLSCAASGSTFRANAMGWYRQAPGKERELVAAITSSGGSTYYADSVKGRFTISRDNAKNTVYLQMNSLKPEDTAVYYCAAYPRPYIGYTDGYVWYEFDYWGQGTQVTVSS", "polyreactivity (PSR sort gate)": "low polyreactivity"},
      {"sequence": "QVHLVETGGGLVQAGGSPRLSCAASGRTLLDYGLGWYRQAPGKERELVAGITSSGGRSYADSVKGRLTISRDNAKNTVYLEMNSLKPEDSAGYYCAAYLNLSELLRYHYWGKGTQVTVSS", "polyreactivity (PSR sort gate)": "low polyreactivity"},
      {"sequence": "QVQLEESGGRLVQAGGRLRLNCAASGLTFNTNSMGWYRKAPGKERELVAAISRGGGSTYYADSVKGRFTISRDNAKNSVYLQMNSLKPEDTAVYYCNAEKSASYLLYDYWGQGTLVTVSS", "polyreactivity (PSR sort gate)": "high polyreactivity"},
      {"sequence": "QVQLVESGGGLVQAGGSLRLSCAASGNIFVPSAMGWYRQEPGKERELVAAINVGGSTNYADSLNGRFTNSRDNPKNTVYLQMNSVKPEDTAVNYFGAVWYFLSLWYDYWGHGTQVTVSS", "polyreactivity (PSR sort gate)": "high polyreactivity"},
      {"sequence": "QVQLVESGGGLVQAGGRLRLSCAASGRIFTYNAMGWYRQAPGKEREFVAAISSGGSTTYADSVKGRFTISRDNAKNTVYLQMNSRKPEDTAVYYCAARGWRFAIIEYEYWGQGTQVTVSS", "polyreactivity (PSR sort gate)": "low polyreactivity"},
      {"sequence": "QVQLVESGGGLVQAGGSLRLSCASSGFILDYNAMGWYRQAPGKERQLVATITGRGDRTYYADSVKGRFTISRDNAKNTVYLQMNSLKPEDTAVYYCAAGFDGSSHPGFDSWGQGTQVTVSS", "polyreactivity (PSR sort gate)": "low polyreactivity"},
      {"sequence": "QVQLVESGGGLVQAGGSLRLSCAASGIIFRYYAMGWYRQAPGKERELVATISWRGGSTYYADSVKGRFTISRDNAKNTVYLQMNSLKPEDTAVYYCAAAISYSARGGKGLGGYWGQGTQVTVSS", "polyreactivity (PSR sort gate)": "high polyreactivity"},
      {"sequence": "QVQLVESGGGLVQAGGSLRLSCAASGRIFFTYAMGWSRQAPGKERELVAAISWSGGGTYYADSVKGRFTISRDNAKNTVYLQMNSLKPEDTAVYYCAADNTILFDYWGQGTQVTVSS", "polyreactivity (PSR sort gate)": "low polyreactivity"},
      {"sequence": "QVQLVESGGGLVQAGGSLRLSCAASGSTFLFYDMGWYRHAAGKERELVAAIRWSGGSTYADSVKGRFTISRDNAKNTVYLQMNSLKPVDTAVYYCATTYRPTFRRHYNYWGQGTQVTVSS", "polyreactivity (PSR sort gate)": "low polyreactivity"},
      {"sequence": "QVQLVESGGGLVQAGGSLRLSCAASGITLLYYAMGWYRQAPGKERELVAAISRRGGSTYYADSVKGRFTISRDNAKNTVYLQMNSLKPEDTAVYYCAAYSPYGGYHYLYDYWGQGTQVTVSS", "polyreactivity (PSR sort gate)": "high polyreactivity"},
      {"sequence": "QVQLVESGGGLVQAGGSLRLSCAASGRIFVRNAMGWYRPAPGKERELVAGITRGGGTNFADSVKGSFTISRDNAKNTVYLQMNSLKPEVTAVYDCNALHRARLFGHYPYESWGHGTQVTVSS", "polyreactivity (PSR sort gate)": "high polyreactivity"},
      {"sequence": "QDQLVESGGGLVQAGGSLRLSCAGSGSTFKRYAMGWYRQAPGKDRELVAAISRRGGSTYYADSVKGRFTISRDNAKNTVYLQMNSLKPEDTAVYYCAARGTGNIYDYWGQGTQVTVSS", "polyreactivity (PSR sort gate)": "high polyreactivity"},
      {"sequence": "QVQLVESGGGLVQAGGSLRLSCAASGSTFGPYAMGWYRQAPGKERELVAAITKSGGRTYYADSVKGRFTISRDNAKNTVYLQMNSLKPEDTAVYYCAAYGSVGLEYWGQGTQVTVSS", "polyreactivity (PSR sort gate)": "high polyreactivity"},
      {"sequence": "QFQLVESVGGLVQAGGSLRLSCAATGRTSYVYLMVSYRAATGTEMELVAAITGSGGSTYYADSVKGRFTISRDNEKNNVYLQLNSLKPEDTAVYYCAKAYYSYEVYLGLSYVRRYVYWGQGTQVTVSS", "polyreactivity (PSR sort gate)": "low polyreactivity"},
      {"sequence": "QVQLVESGGGLVQAGGSLRLSCAASGYTFLYNAMGWYRQAPGKERELVAAISWNGGRTYYADSVKGRFTISRDNAKNTVYLQMNSLKPEDTAVYYCAKTPSYGRNVDYWGQGTQVTVSS", "polyreactivity (PSR sort gate)": "high polyreactivity"},
      {"sequence": "QDQLVESGGGLVQAGGSLRLSCAASVSIFGSYAMGWYRQAPGKERELVAGITSSGGSTYYADSVKGRFTISRDNAKNTVYLQMNSLKPEDTAVYYCNAPLGWWQFYYCGQGTQVTVSS", "polyreactivity (PSR sort gate)": "high polyreactivity"},
      {"sequence": "QVQLVESGGGLVQAGASLRLSCAASGSIFIWYAMGWYRQAPGKERELVAAITSSGSTNYADSVKGRFTISRDNAKNPVYLQMNSLKPEDTAVYYCAAEYTYYTYNLNYWGQGTQVTVSS", "polyreactivity (PSR sort gate)": "low polyreactivity"},
      {"sequence": "QVQLVESGGGLVQAGGSLRLSCAASGSTFDRYAMGWYRQAPGKERELVASISRSGGNTYYADSVKGRFTISRDNAKNTVYVPMNSLKPDDTAGYYSNKPIGRYSRNRYGYWGQATQVTVSS", "polyreactivity (PSR sort gate)": "high polyreactivity"},
      {"sequence": "QVQLVESGGGLVQAGGSLRLSCAASGYTFIYYAMGWYRQAPGTERELVATISIDGSTNYADSVKGRFTISRDNAKNTVYLQMNSLKPEDTAVYYCNRERYEDYDYWGQGTQVTVSS", "polyreactivity (PSR sort gate)": "high polyreactivity"},
      {"sequence": "QVQLVESGGGLVQAGGSLRLSCAASGRTFQVNSMGWYRQAPGKERELVAALTKRGGSTSYADSVKGRFTFSRDNANNTFYLQMNSLIPEDTAVYYCNVDYWGQGTQVTLSS", "polyreactivity (PSR sort gate)": "low polyreactivity"},
      {"sequence": "QVQIVESGGGLVQAGGSLRISCSASGRTLRSYAMGWYRHAPGKERELVAAISRSGGSTNYADSVKGRFTISHDNAKNTVYLQMNSLKPEETAVYYCNTYSTSWKMDYWGQGTKVTVSS", "polyreactivity (PSR sort gate)": "high polyreactivity"},
      {"sequence": "QVHLVESGGGLVHAGGSLRLSCAASGRSFTFYDMGWYRQAPGKERELVAAITQDSGSSTYYADSVKGRFTISRDNAKNTVYLQMNSLKPEDTAVYYCNADYPGFSSQNDYWGQGTHVTVSS", "polyreactivity (PSR sort gate)": "low polyreactivity"},
      {"sequence": "QVQLVESGGGLVQAGGSLRLSCAASGSTFYFNAMGWYRQAPGKERELVATISDNDGSTNYADSVKGRFTISRDNAKNTVYLQMNSLKPEDTAVYYCNADWYYYYEEDDYWGQGTQVTVSS", "polyreactivity (PSR sort gate)": "low polyreactivity"},
      {"sequence": "QVQLVESGGGLVQAGGSLRLSCAASVFTFGQYTMGWYRQAPGKERELVAAITGSGGNTYYADSVKGRFTISRDNAKNTVYLQMNSLKPEDTAVYYCAVQWTYDQYYDYDYWGQGTQVTVSS", "polyreactivity (PSR sort gate)": "low polyreactivity"},
      {"sequence": "QVHLVESGGGLVQAGGSLRLSCAASGRIFAWNSMGWYRQAPGKERELVAAITYNGGSTYYADSVKGRFTISRDNAKNTVYLQMNSLKPEDTAVYYCNKVTRSPAQGYGYWGQGTQVTVSS", "polyreactivity (PSR sort gate)": "high polyreactivity"},
      {"sequence": "QVQLVESGGGLVQAGGSLRLSCAASGLTFAYYDMGWYRPAPGKERELVAAITSGGTTNYADSVKGRFTISRDNAKNTVYLQMNSQKPEDTADYYCAADRYYWGRYTLNYWGQGTQVTVSS", "polyreactivity (PSR sort gate)": "low polyreactivity"},
      {"sequence": "QVQLVESGGGLFQAGGSLRLSCAASGSIFSKYAMAWYRQAPGKERELVAAITLNGGSTYYADSVKGRFTISRDNAKNTVYLQMNSLNPEDTAVYYCAKSDRPWWGYYYQFDYWGQGTQVTVSS", "polyreactivity (PSR sort gate)": "low polyreactivity"},
      {"sequence": "QVQLVESGGGLVQAGGSLRLSCAASGSTFGIYAMGWYRQAPGKERELVAAIRKNGGSTYYADSVKGRFTISRDNAKNTVYLQMNSLKPEDTAVYYCNADYWIYPSYDYWGQGTQVTVSS", "polyreactivity (PSR sort gate)": "low polyreactivity"},
      {"sequence": "QVQLVESGGGLVQAGGSLRLSCAASGRTFLVYTMGWYRQAPGKERELVAAISWSDGSTYYADSEKGRFTISRDNAKNTVYLQMNSLKPEDTAVYYCAARRTGYLYRYGYWGQGTQVTVSS", "polyreactivity (PSR sort gate)": "low polyreactivity"},
      {"sequence": "QVQLVESGGGKVQAGGSLRLSCAASGRTFRWYAMGWYRQAPGKERELVAAITSSSSTNYADSVKGRFTISRDNAKNTVYLQMNSLKPEDTAVYYCAKGWNWYDLGESGYWGQGTQVTVSS", "polyreactivity (PSR sort gate)": "low polyreactivity"},
      {"sequence": "QVQLVESGGGLVQAGGSLRLSCAASGITSKQYAMGWYRQAPGKEWELVAAISGSGTRTYYADSVKGRFTISRDNAKNTVYLQMNSQKPEDTAVYYCAAYYHLVVKRLRYDYWGQGTQVTVSS", "polyreactivity (PSR sort gate)": "high polyreactivity"},
      {"sequence": "QVQLVESGGGLVQAGGSLRLSCAASGSTFYWYTMGWYRQAPGKERELVATINYSGGSTYYADSVKGRFTISRDNAKNTVYLQMNSLKPEDTAVYYCNKQVYVGWGSDYWGQGTQVTVSS", "polyreactivity (PSR sort gate)": "low polyreactivity"},
      {"sequence": "QVQLVESGGGLVQAGFSLRLSCAASGFTFKYYAMGWYRQAPGKERELVAAISSGGSTYYADSVKGRFTISRDNAKNTVYLQMNSLKPEDTAVYYCNRRFAPFWGRYGYWGQGTKVTVSS", "polyreactivity (PSR sort gate)": "high polyreactivity"}
    ]}
  ]
}
